Data taken from the supplement of paper PMC9170038.

System: K4 kissing-loop RNA reporter
Assay: apparent KD of K4 kissing-loop reporter; higher = weaker reporter binding
Settings: Eterna round: R107
Experimental: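 RNA-MaP round R107: designed RNA switches with theophylline, tryptophan, arginine or FMN aptamers are transcribed on-chip within common flanks. They are titrated with a labelled K4 kissing-loop RNA reporter in RNA-MaP buffer (100 mM Tris pH 7.5, 80 mM KCl, 4 mM MgCl2), without ligand or with the indicated ligand. Median apparent KD per design.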

[1] = input ligand: theophylline 20 uM
[2] = input ligand: tryptophan 2.4 mM
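Further: bound reporter read as fluorescence of individual clusters on recovered sequencing chips by microscopy, with normalized cluster intensities fitted with a binding model.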

| Sequence | apparent KD of K4 kissing-loop reporter (input ligand: FMN 200 uM) [µM] | apparent KD of K4 kissing-loop reporter (input ligand: arginine 13.2 mM) [µM] | apparent KD of K4 kissing-loop reporter (input ligand: none) [µM] | apparent KD of K4 kissing-loop reporter [1] [µM] | apparent KD of K4 kissing-loop reporter [2] [µM] |
| --- | --- | --- | --- | --- | --- |
| GCAAACCUCAGUGAUGUUGAGUAAUCGGAAGGAGCGCGUGAAAACGCAGGUAGGUCGCCGAUACAUGAAGUAUCUUCGUGUUUGC [Arginine A K4 23] | 0.284 | 0.365 | 0.354 | 0.38 | 0.274 |
| GCACACUAGUAAACUAGUGUGUUAACUGAAGGAGCGUGAAUAAUCACAGGUAGGUCGCAGUUUGUCAGUGAUGUUGACACGAGUG [Arg A SS t2] | 0.165 | 0.217 | 0.249 | 0.247 | 0.179 |
| GCAGGACGAUGAGGAGGAUGAAUUACUGAAGGAGCGCAUAUGGUUGCAGGUAGGUCGCGGUGAACAAGUAUAGUGAUGUUAUAUC [SSArgA.R] | 0.755 | 0.179 | 0.138 | 0.471 | 1.05 |
| GCAGUGAUGUUGCGAAUCGGCCAUGAUACAGAGGAUAUCGUGCCUUCGAGAAGGUUGUAUAGAGGAUACGAUAUUAUAAAUGACG [Same State FMN A GF 1] | 0.353 | 0.384 | 0.432 | 0.436 | 0.348 |
| GCAGUGAUGUUGCGGAUGUACAGUGGAGUGCGAGGACCGGUACGGCCGCCACUCGUACAGAACAAGCUAAUAUAUCGAUAGGUGA [X] | 0.203 | 0.242 | 0.263 | 0.282 | 0.157 |
| GCAGUGAUGUUGCGGAUGUACAGUGGCGUGCGAGGACCGGUACGGCCGCCACUCGUACAGAGCCAGCUAAUACAUCGAUAGGUGA [whbob_SS_Tryp_A_m6] | 0.289 | 0.177 | 0.239 | 0.296 | 0.322 |
| GCAGUGAUGUUGCGGAUGUACAGUGGCGUGCGAGGACCGGUACGGCCGCCACUCGUACAGAGCCAGCUAAUACAUCGAUUGGUGA [whbob_SS_Tryp_A_m7] | 0.387 | 0.176 | 0.206 | 0.157 | 0.212 |
| GCAGUGAUGUUGCUGAUGUACAGUGGGAUACGAGGACCGGUACGGCCGCCACUCGUACAGAACUUAUUAAUACAUCGAUAAGUGA [XIV] | 0.534 | 0.612 | 0.71 | 0.643 | 0.687 |
| GCCGUACGCAUGGAUACCAGCAAUCAAACGUCAUGCGAAGUGAUGUUUCGCUUACGGUAGUGCCCUUGGCAGCCAUGCGUACGGC | 0.142 | 0.124 | 0.123 | 0.0912 | 0.13 |
| GCCGUACGCAUGGAUACCAGCACUCGUUGAGUGAUGUUCACGAGGUGGUAUUCGACGGGCUGCCCUUGGCAGCCAUGCGUACGGC | 0.111 | 0.0873 | 0.102 | 0.099 | 0.121 |
| GCCGUACGCAUGGAUACCAGCAGAACUGCCCUCCCAGUGAUGUUGGGAGGAUCUUUCCUAUGCCCUUGGCAGCCAUGCGUACGGC | 0.148 | 0.113 | 0.126 | 0.117 | 0.117 |
| GCCGUACGCAUGGAUACCAGCAUCGACUCAUAUACAGUGAUGUUGUGUAAUGACCUCAUUUGCCCUUGGCAGCCAUGCGUACGGC | 0.471 | 0.291 | 0.62 | 0.857 | 0.8 |
| GCCGUAGAUUGAAGGAGCGGCUUCAUCAAAUCUCUUGCCCGCACCAGUGAUGUUGGUGUUAGCCAGGUAGGUCGCAAUCUACGGC | 0.577 | 0.376 | 0.583 | 0.493 | 0.465 |
| GCCUGAGCACGAAGGAGCGCCGUGACAGGUUACUGCCUUGGGCAGUGAUGUUGCUCAAUCUGGCAGGUAGGUCGCGUGCUCAGGC | 0.165 | 0.161 | 0.162 | 0.131 | 0.167 |
| GCCUGUGCGCGAAGGAGCGCCGUGACAGGUUACUGCCUUGGGCAGUGAUGUUGCUCAAUCUGGCAGGUAGGUCGCGUGCACAGGC | 0.236 | 0.187 | 0.201 | 0.156 | 0.192 |
| GCGAACAUUCGCAGUGAUGUUGCGACGGAAGGAGCGCGUGAAAACGCAGGUAGGUCGCCGACAACAUUAAUUUUAAUGUGUUCGC [Arginine A K4 28] | 0.411 | 0.308 | 0.425 | 0.356 | 0.256 |
| GCGAAGAGAGAAGGAUAUUAGUAAUGCGUCAUGCGCCCUUACCAGUUAGUGAUGUUAACAAUACAUUAAGAAGGUCUCGGAAUCC [theeternabot_sameState_KL_FMN_B_50] | 0.297 | 0.169 | 0.187 | 0.215 | 0.185 |
